Drawing on patent US20250263504A1 (Takeda / Millennium, published 2025), this text covers Ki for 41 molecules.

First the molecules themselves.
T1: Factor XIIa (FXIIa) (UniProt P00748 20-372; P00748 373-615, limits assumed)
T1 construct: the description speaks of human FXIIa; also called active Factor XII
T1 sequence (looked up) 1: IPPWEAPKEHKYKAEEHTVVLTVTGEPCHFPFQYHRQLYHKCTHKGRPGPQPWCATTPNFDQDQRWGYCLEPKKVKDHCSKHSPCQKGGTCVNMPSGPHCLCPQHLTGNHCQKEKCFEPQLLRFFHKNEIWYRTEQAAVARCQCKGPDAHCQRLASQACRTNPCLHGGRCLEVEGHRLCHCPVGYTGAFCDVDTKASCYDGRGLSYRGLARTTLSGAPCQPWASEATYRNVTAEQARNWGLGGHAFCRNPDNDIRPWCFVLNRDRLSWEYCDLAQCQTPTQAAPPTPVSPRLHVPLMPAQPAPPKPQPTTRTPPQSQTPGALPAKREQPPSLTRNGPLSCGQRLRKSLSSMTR
T1 sequence (looked up) 2: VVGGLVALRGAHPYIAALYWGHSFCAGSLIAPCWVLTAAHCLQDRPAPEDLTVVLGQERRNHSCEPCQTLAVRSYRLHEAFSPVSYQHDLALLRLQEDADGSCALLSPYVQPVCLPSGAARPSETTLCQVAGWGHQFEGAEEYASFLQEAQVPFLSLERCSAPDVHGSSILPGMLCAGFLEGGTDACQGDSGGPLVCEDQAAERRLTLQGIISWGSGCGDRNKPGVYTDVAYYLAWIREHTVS

B1: 620I-X0138-B01 (bispecific antibody, human IgG1, kappa)
heavy: not shown
light: DIQMTQSPSTLSASVGDRVTITCRASQSISSWLAWYQQKPGKAPKLLIYKASTLESGVPSRFSGSGSGTEFTLTISSLQPDDFATYYCQQYNTYWTFGQGTKVEIKRTVAAPSVFIFPPSDEQLKSGTASVVCLLNNFYPREAKVQWKVDNALQSGNSQESVTEQDSKDSTYSLSSTLTLSKADYEKHKVYACEVTHQGLSSPVTKSFNRGEC
notes: also called 620I-X138-B01
B2: 620I-X0142-B11 (bispecific antibody, human IgG1, kappa)
heavy: not shown
light: B1 light
notes: also called 620I-X142-B11
B3: 620I-X0142-B02 (bispecific antibody)
heavy: not shown
light: B1 light
notes: also called 620I-X142-B02
B4: 620I-X0139-D12 (bispecific antibody)
heavy: not shown
light: B1 light
notes: also called 620I-X139-D12
B5: 620I-X0138-A01 (bispecific antibody)
heavy: not shown
light: B1 light
notes: also called 620I-X138-A01
B6: 620I-X0142-D04 (bispecific antibody)
heavy: not shown
light: B1 light
notes: also called 620I-X142-D04
B7: 620I-X0142-B07 (bispecific antibody)
heavy: not shown
light: B1 light
notes: also called 620I-X142-B07
B8: 620I-X0138-A08 (bispecific antibody)
heavy: not shown
light: B1 light
notes: also called 620I-X138-A08
B9: 620I-X0138-E03 (bispecific antibody)
heavy: not shown
light: B1 light
notes: also called 620I-X138-E03
B10: 620I-X0142-A02 (bispecific antibody)
heavy: not shown
light: B1 light
notes: also called 620I-X142-A02
B11: 620I-X0138-B10 (bispecific antibody)
heavy: not shown
light: B1 light
notes: also called 620I-X138-B10
B12: 620I-X0139-E05 (bispecific antibody)
heavy: not shown
light: B1 light
notes: also called 620I-X139-E05
B13: 620I-X0138-C12 (bispecific antibody)
heavy: not shown
light: B1 light
notes: also called 620I-X138-C12
B14: 620I-X0139-A11 (bispecific antibody)
heavy: not shown
light: B1 light
notes: also called 620I-X139-A11
B15: 620I-X0138-D11 (bispecific antibody)
heavy: not shown
light: B1 light
notes: also called 620I-X138-D11
B16: 620I-X0142-E02 (bispecific antibody)
heavy: not shown
light: B1 light
notes: also called 620I-X142-E02
B17: 620I-X0138-F02 (bispecific antibody)
heavy: not shown
light: B1 light
notes: also called 620I-X138-F02
B18: 620I-X0139-B10 (bispecific antibody)
heavy: not shown
light: B1 light
notes: also called 620I-X139-B10
B19: 620I-X0138-D04 (bispecific antibody)
heavy: not shown
light: B1 light
notes: also called 620I-X138-D04
B20: 620I-X0138-A12 (bispecific antibody)
heavy: not shown
light: B1 light
notes: also called 620I-X138-A12
B21: 620I-X0139-G12 (bispecific antibody)
heavy: not shown
light: B1 light
notes: also called 620I-X139-G12
B22: 620I-X0139-A12 (bispecific antibody)
heavy: not shown
light: B1 light
notes: also called 620I-X139-A12
B23: 620I-X0138-D06 (bispecific antibody)
heavy: not shown
light: B1 light
notes: also called 620I-X138-D06
B24: 620I-X0138-A02 (bispecific antibody)
heavy: not shown
light: B1 light
notes: also called 620I-X138-A02
B25: 620I-X0138-B07 (bispecific antibody)
heavy: not shown
light: B1 light
notes: also called 620I-X138-B07
B26: 620I-X0138-E05 (bispecific antibody)
heavy: not shown
light: B1 light
notes: also called 620I-X138-E05
B27: 620I-X0139-A01 (bispecific antibody)
heavy: not shown
light: B1 light
notes: also called 620I-X139-A01
B28: 620I-X0142-A04 (bispecific antibody)
heavy: not shown
light: B1 light
notes: also called 620I-X142-A04
B29: 620I-X0138-C07 (bispecific antibody)
heavy: not shown
light: B1 light
notes: also called 620I-X138-C07
B30: 620I-X0138-F05 (bispecific antibody)
heavy: not shown
light: B1 light
notes: also called 620I-X138-F05
B31: 620I-X0138-D05 (bispecific antibody)
heavy: not shown
light: B1 light
notes: also called 620I-X138-D05
B32: 620I-X0142-A05 (bispecific antibody)
heavy: not shown
light: B1 light
notes: also called 620I-X142-A05
B33: 620I-X0138-G12 (bispecific antibody)
heavy: not shown
light: B1 light
notes: also called 620I-X138-G12
B34: 620I-X0138-B06 (bispecific antibody)
heavy: not shown
light: B1 light
notes: also called 620I-X138-B06
B35: 620I-X0138-D03 (bispecific antibody)
heavy: not shown
light: B1 light
notes: also called 620I-X138-D03
B36: 620I-X0179-C01 (bispecific antibody, human IgG1, kappa)
heavy: not shown
light: B1 light
notes: 620I-X0177-A01 with IgG C-terminal Lys changed to Gly; also called 620I-R0052-C01; 620I-X179-C01
B37: 620I-X0179-E05 (bispecific antibody, human IgG1, kappa)
heavy: not shown
light: B1 light
notes: 620I-X0177-C01 with IgG C-terminal Lys deleted; also called 620I-R0052-E01
B38: 620I-X0179-A09 (bispecific antibody, human IgG1, kappa)
heavy: not shown
light: B1 light
notes: 620I-X0177-A01 with IgG C-terminal Lys deleted; also called 620I-R0052-A01; 620I-X179-A09
B39: 620I-X0180-C11 (bispecific antibody, human IgG1, kappa)
heavy: not shown
light: B1 light
notes: 620I-X0177-G01 with IgG C-terminal Lys changed to Gly; also called 620I-R0052-C03; 620I-X180-C11
B40: 620I-X0180-G03 (bispecific antibody, human IgG1, kappa)
heavy: not shown
light: B1 light
notes: 620I-X0177-E01 with IgG C-terminal Lys changed to Gly; also called 620I-R0052-G03; 620I-X180-G03
B41: 620I-X0179-G05 (bispecific antibody, human IgG1, kappa)
heavy: not shown
light: B1 light
notes: 620I-X0177-C01 with IgG C-terminal Lys changed to Gly; also called 620I-R0052-G01; 620I-X179-G05

One experiment concerns the target T1, Factor XIIa (FXIIa). The experiment in a line: enzyme inhibition, corrected Ki,app.
Regarding B1, the Ki stood at 6.63 nM.

As to B2, the Ki turned out to be 7.72 nM.

B3 showed a Ki of 0.955 nM.

In turn, B4 came in with a Ki of 0.383 nM.

Consider B5, for which the Ki is 0.465 nM.

B6: the Ki worked out at 0.414 nM.

In turn, B7 gave a Ki of 0.775 nM.

Regarding B8, the Ki stood at 0.357 nM.

B9 gave a Ki of 0.122 nM.

The molecule B10 had a Ki of 0.063 nM.

Molecule B11 gave a Ki of 0.058 nM.

Molecule B12 showed a Ki of 0.172 nM.

With B13, the Ki came to 0.697 nM.

The molecule B14 had a Ki of 3.83 nM.

In turn, B15 gave a Ki of 0.443 nM.

B16 had a Ki of 0.186 nM.

B17: the Ki came out at 0.794 nM.

For B18, the Ki worked out at 0.189 nM.

In the case of B19, the Ki was determined as 0.079 nM.

B20: the Ki was determined as 1.93 nM.

Molecule B21 gave a Ki of 0.252 nM.

Molecule B22 displayed a Ki of 4.08 nM.

As for B23, the Ki was 0.132 nM.

B24 yielded a Ki of 0.288 nM.

The molecule B25 had a Ki of 0.135 nM.

In turn, B26 returned a Ki of 0.245 nM.

B27 yielded a Ki of 0.053 nM.

For B28, the Ki was determined as 1.23 nM.

B29: the Ki was found to be 0.314 nM.

The molecule B30 returned a Ki of 0.147 nM.

Take B31: the Ki stood at 0.139 nM.

Consider B32, for which the Ki amounted to 2.14 nM.

In turn, B33 showed a Ki of 0.766 nM.

Consider B34, for which the Ki came to 0.405 nM.

Regarding B35, the Ki worked out at 0.344 nM.

In a further experiment the target is T2, plasma kallikrein (pKal) (UniProt P03952 20-390; P03952 391-638, limits assumed).
T2 construct: the description speaks of human pKal; also called active pKal
T2 sequence (P03952 20-390 limits assumed, form in doubt, chain 1 of 2): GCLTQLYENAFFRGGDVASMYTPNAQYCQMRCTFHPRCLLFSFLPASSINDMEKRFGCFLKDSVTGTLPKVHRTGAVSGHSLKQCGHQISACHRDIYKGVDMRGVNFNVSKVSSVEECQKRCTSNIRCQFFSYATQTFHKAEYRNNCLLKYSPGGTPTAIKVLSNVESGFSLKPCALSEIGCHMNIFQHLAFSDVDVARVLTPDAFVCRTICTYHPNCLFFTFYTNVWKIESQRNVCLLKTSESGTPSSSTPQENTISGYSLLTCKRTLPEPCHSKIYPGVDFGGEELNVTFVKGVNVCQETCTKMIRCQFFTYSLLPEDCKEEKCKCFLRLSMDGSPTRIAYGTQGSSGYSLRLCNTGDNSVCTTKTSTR
T2 sequence (P03952 391-638 limits assumed, form in doubt, chain 2 of 2): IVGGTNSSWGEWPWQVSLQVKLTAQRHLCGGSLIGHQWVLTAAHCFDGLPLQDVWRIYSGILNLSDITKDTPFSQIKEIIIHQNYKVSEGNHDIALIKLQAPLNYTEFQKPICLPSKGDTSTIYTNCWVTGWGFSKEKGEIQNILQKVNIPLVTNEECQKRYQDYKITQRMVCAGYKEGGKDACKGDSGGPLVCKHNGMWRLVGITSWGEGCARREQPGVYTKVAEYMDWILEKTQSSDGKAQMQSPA
The experiment in a line: enzyme inhibition, corrected Ki,app.
B1: the Ki is 0.169 nM.

Molecule B2 gave a Ki of 0.622 nM.

For B3, the Ki was determined as 0.156 nM.

B4: the Ki came out at 0.428 nM.

B5 displayed a Ki of 0.154 nM.

In turn, B6 had a Ki of 0.17 nM.

Consider B7, for which the Ki turned out to be 0.224 nM.

Regarding B8, the Ki worked out at 0.92 nM.

With B9, the Ki came to 0.178 nM.

As for B10, the Ki worked out at 0.152 nM.

As to B11, the Ki turned out to be 0.075 nM.

Turning to B12, the Ki came out at 0.196 nM.

In turn, B13 registered a Ki of 0.267 nM.

As to B14, the Ki came to 0.235 nM.

Molecule B15 showed a Ki of 0.178 nM.

For B16, the Ki worked out at 0.162 nM.

B17 came in with a Ki of 0.464 nM.

Take B18: the Ki turned out to be 0.247 nM.

B19 gave a Ki of 0.215 nM.

Turning to B20, the Ki was 0.405 nM.

For B21, the Ki came out at 0.276 nM.

For B22, the Ki was determined as 2.05 nM.

The molecule B23 returned a Ki of 0.199 nM.

In the case of B24, the Ki was found to be 0.206 nM.

For B25, the Ki was 0.246 nM.

Take B26: the Ki was 0.186 nM.

B27 returned a Ki of 0.146 nM.

B28 registered a Ki of 0.162 nM.

Molecule B29 registered a Ki of 0.196 nM.

For B30, the Ki turned out to be 0.214 nM.

For the molecule B31, the Ki was 0.519 nM.

B32 registered a Ki of 0.16 nM.

Regarding B33, the Ki turned out to be 0.186 nM.

Regarding B34, the Ki is 0.33 nM.

B35 returned a Ki of 0.079 nM.

A further experiment addresses T2, plasma kallikrein (pKal). The experiment in a line: pKal enzyme inhibition, Ki,app.
In turn, B36 displayed a Ki of 0.243 nM.

B37 came in with a Ki of 0.203 nM.

For B38, the Ki was determined as 0.225 nM.

B39 came in with a Ki of 0.232 nM.

Take B40: the Ki is 0.208 nM.

In turn, B41 displayed a Ki of 0.226 nM.

In a further experiment the target is T1, Factor XIIa (FXIIa). The experiment in a line: FXIIa enzyme inhibition, Ki,app.
Regarding B36, the Ki worked out at 0.108 nM.

B37 showed a Ki of 0.099 nM.

For B38, the Ki was determined as 0.09 nM.

As for B39, the Ki is 0.14 nM.

As for B40, the Ki came to 0.071 nM.

As for B41, the Ki amounted to 0.052 nM.
